Among the data in article PMC3880588 are Kd and fold decrease in binding affinity vs WT (fold lower affinity than WT MBNL1-N) values, retold here.

Residue numbers refer to the chain shown, from its start.

Holding throughout (test): EMSA
Data set [1] has as its system T1, MBNL-N-M12 F36A;Y68A, Q9NR56-5.
T1 sequence: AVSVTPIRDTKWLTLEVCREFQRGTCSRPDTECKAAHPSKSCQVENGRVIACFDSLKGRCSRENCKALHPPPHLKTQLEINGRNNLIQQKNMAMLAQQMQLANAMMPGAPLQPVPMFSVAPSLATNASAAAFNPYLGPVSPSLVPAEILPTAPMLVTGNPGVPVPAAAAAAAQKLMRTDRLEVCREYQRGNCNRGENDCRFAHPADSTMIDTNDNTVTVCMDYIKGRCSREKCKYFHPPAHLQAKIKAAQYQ
As to conditions: no stable complex up to 2 uM; EMSA: 10 mM HEPES pH 7.9, 3 mM MgCl2, 10 uM ZnCl2, 5% glycerol, 1 mM DTT, 20 ug/ml rRNA, 10 fmol RNA in 5 ul, 30 C 15 min, then heparin 5 min; 5% PAGE at 4 C ….

Data set [2] concerns T2, MBNL-N-M34 F202A;Y236A, Q9NR56-5.
T2 sequence: T1 sequence with A35F, A67Y, F201A, Y235A
As to conditions: EMSA: 10 mM HEPES pH 7.9, 3 mM MgCl2, 10 uM ZnCl2, 5% glycerol, 1 mM DTT, 20 ug/ml rRNA, 10 fmol RNA in 5 ul, 30 C 15 min, then heparin 5 min; 5% PAGE at 4 C …. (In general: A gel shift assay detects complexes by their altered migration in electrophoresis.)

Data set [3] has as its system T3, MBNL1-2-72, Q9NR56-5.
T3 sequence: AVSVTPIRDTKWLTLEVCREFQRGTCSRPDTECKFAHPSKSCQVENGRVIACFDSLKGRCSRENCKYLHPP
As to conditions: no binding at any concentration (up to 2000 nM); EMSA: 10 mM HEPES pH 7.9, 3 mM MgCl2, 10 uM ZnCl2, 5% glycerol, 1 mM DTT, 20 ug/ml rRNA, 10 fmol RNA in 5 ul, 30 C 15 min, then heparin 5 min; 5% PAGE at 4 C ….

Regarding “GGGAGACAAGCUUAAGUCUACGCACCCUCAACCCGCACCUUGCGGGAUCACGCUGCCUGCUGCACCCCACCCCCUUCCCCCUUCCUUCCCCCCACCCCCGUACUCCACUGCCAACUCCCAG [Tpm1 URE RNA]”, the Kd in data set [1] and in data set [3] was > 2000 nM in each case. This sequence also came in with a fold decrease in binding affinity vs WT (fold lower affinity than WT MBNL1-N) in data set [2] of 20.
Consider “GGGAGACAAGCUUGAGCUGGAUGCCGCCUCUGCUGCUGC [Tpm1 Dugc RNA]”, for which the Kd in data set [1] and in data set [3] was > 2000 nM each time. Moreover, in data set [2], the fold decrease in binding affinity vs WT (fold lower affinity than WT MBNL1-N) turned out to be 20.
With “GGGAGACAAGCUUUGCAAACUGUUAAUCUCAACUAACUGCCGCUUAAAUAAUUAGUGCAGCUUUUAACUACUGGUUCUGUCCCAACUGGCUACUUGUGCCUAAAGCCCAAAGAAUU [Vldlr RNA]”, the dissociation constant (Kd) in data set [1] and in data set [3] was > 2000 nM in each case. In data set [2], the fold decrease in binding affinity vs WT (fold lower affinity than WT MBNL1-N) worked out at 20.

By Kd is commonly meant the constant that tells how readily two partners part at equilibrium. A lower Kd goes with a tighter complex.
